# Test results from the supplement of paper PMC12042874.
# ± gives the uncertainty stated by the source.
# Test: amyloid nucleation score (Sup35N fusion, yeast selection) (log enrichment); library NNK3; higher = more nucleation; inactive = no reads after selection
# Method in brief: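 The nucleation score, computed with DiMSum, is the log enrichment of output over input reads, centred on the mode score of non-aggregating sequences. Sequences with under 100 input reads were dropped. Reads were generated by Illumina sequencing of plasmid inserts from psi-negative yeast with Sup35N fused to peptides of 20 random codons, induced with 100 μM copper sulfate for 24 hours and grown 7 days at 30°C on medium lacking adenine and uracil.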
row,Substance,amyloid nucleation score
1,IRMYNSSERFYSPDKRHVPK,inactive
2,IRNIRFVFLILIDWSSRNSV,inactive
3,IRRLSSVCMGCSWYL,inactive
4,IRRSLAR,inactive
5,IRSILW,inactive
6,IRSPWTSRAVCGGADV,inactive
7,IRSYAF,inactive
8,IRTNAGSLYFYWGTLFRISH,inactive
9,IRTTSPHHDSLSNEGVIDML,inactive
10,IRVTRIRAKVTLTTNVMWVP,0.463 ± 0.29
11,IRYLYLV,inactive
12,ISCALHYDSVRKRYVVSGQL,inactive
13,ISDRFQAESCSRCSLVSSMF,inactive
14,ISEVESWPFHCGYGNI,0.467 ± 0.28
15,ISILDLSSTF,inactive
16,ISINYVPDMFDLRDYFTVIL,inactive
17,ISIPLLIMLPELGTASMVNG,inactive
18,ISKSHGYLYSNWKTCFSELS,inactive
19,ISLYNRNIYCRLTFMLRVIR,inactive
20,ISMHPERQVMMRLPCRMCCL,inactive
21,ISMSNHWLLLVICNDEWDLP,-0.06 ± 0.7

row,Substance,amyloid nucleation score
1,ISPAESFPSSPERIHIVD,-0.789 ± 0.9
2,ISRLLPPWNNRHIFSFVYLS,inactive
3,ISRNRQRSVIPGTTKLCMWV,inactive
4,ISRSGNLLGYKDLLVATKSG,inactive
5,ISSAYPRNICRVCGPRTR,inactive
6,ISTFVLNDAMLRRWET,inactive
7,ISVIYLS,inactive
8,ISYTTSNYITLVYKLTNRAY,0.911 ± 0.13
9,ITGFLFRVVW,0.829 ± 0.13
10,ITILT,inactive
11,ITLGACS,inactive
12,ITLLCLFNATL,1.98 ± 0.085
13,ITSVTLITNKSKSGIGKVGS,inactive
14,ITWSFTVDMDALCCGPWNVR,3.18 ± 0.078
15,ITWTRGDVGQTHNSAMLSHT,inactive
16,ITYSMLVVVQNLA,1.75 ± 0.1
17,IVADAAWNAIGVSGMDSTGT,inactive
18,IVALQRSFSNNT,inactive
19,IVFWRSFHKNA,inactive
20,IVGDGDGQTCCVSRSLCGMV,inactive
21,IVGIKVDIYNTSGCS,1.7 ± 0.12

row,Substance,amyloid nucleation score
1,IVGLDWKNATVRDCRRNFIN,inactive
2,IVHNYFSFCHYNRGRVGLFI,2.64 ± 0.074
3,IVKCLYVVCV,inactive
4,IVKVLFNSFGGWWYAHGLYV,inactive
5,IVLSNVRVGIACGDLC,0.182 ± 0.44
6,IVLTFYIYRNSYCSAV,0.89 ± 0.092
7,IVNRIVVSSRRFSLVHWGWA,1.73 ± 0.11
8,IVQLHDIVDS,-0.168 ± 0.9
9,IVRSF,inactive
10,IVSALQFAEAKL,inactive
11,IVSKW,inactive
12,IVVFLDLFRDTFGLGLPTKG,inactive
13,IWASRS,inactive
14,IWETVRIFCFINHAINCGVP,2.35 ± 0.079
15,IWKLHITLLSYRSILHVLHM,inactive
16,IWQCRYLRMGQ,inactive
17,IWTTPHVCPNLMMSARGCRL,inactive
18,IWYGLDIWRPLCIGAPMVKD,inactive
19,IYCFRGNHFDCLGAGNMLQV,inactive
20,IYCWCSVIDTGRAARLRVIK,inactive
21,IYDCFVTGSFLRK,inactive

row,Substance,amyloid nucleation score
1,IYGWGRRFRTRR,inactive
2,IYHSYNESVCTYSNHPSRM,inactive
3,IYIAKLHEFSIRYVLPVWYI,inactive
4,IYNNSYKFCILLVTWTIEVQ,inactive
5,IYSTVSYQGTVWRKYWQMNG,inactive
6,IYTARIVTFCTFFRRY,inactive
7,IYVGKRNSCRPSSEDSVGNR,0.402 ± 0.38
8,IYYFSLSMVLRCSEWTLYVY,inactive
9,KAARTSQGNARCVYVKGVSN,inactive
10,KAHRYVWVPSMPSNMNSHRR,inactive
11,KAIDFADDELRPIYMTFRVQ,inactive
12,KALGAEYNTHGTVSGCSLCK,inactive
13,KALSCSRSFAVKVVYTQDP,inactive
14,KALSSDPTICFRRAFIVHCK,inactive
15,KAPNPI,inactive
16,KAQEHPA,inactive
17,KARWYFIVLNVVTHSWDSKV,inactive
18,KCAVDTV,inactive
